Substrate: CC(C)C[C@H](N)C(=O)O
Assay: pyrophosphate release assay of A-domain adenylation
Assay type: biochemical, Aspergillus terreus
Settings: holo C-A-T-R module

B1: NRPS325 (Aspergillus terreus NIH2624) (protein)
chain: PTVERHVESQEPVVEAAVVASSSDSSSEGTMTPPSSRGINTPHTEITNLQLESVKSKACTAVQRREKMSFSQNRLWFPSAYLEQETPFNCTTSYTLTGPLDTARLENAFQRLIQRHESFRTAFYTDEVSGAAMQRVLASSPFQLRTMLGNKDDMQRVFRQIANYHFDLSVADTLVATLISHGPKDHTIVFGYHHIIMDGVSWQITLNDLARFYESDNPELPQLSQYIEFSVKQRQLVSSGAHDAKLSYWRKEFPSAPPLLPLFPFAKVGARKALTRYDTLDYIYDVDVSLVSKIKKASLAAKTTTFHFYLAAFVVLLNRFLEIDDVCLGIIDANRSDKTFLNTVGFLLDMLPLRLKVNKKERFVHTLRNTRAKAYNALEHSGVPLETILKELQVPTSATNTPLFQVLMNYRMGALRAPQMGDAKMNFLDYEDAKAPFDLAISIDEKDDGTGMLTFSMQDYMYDWEGAELLVKTYVHLLDTLATDSSQRINEVSLFDESLVNQSMVAGTGPVTGLDWAGTETISQRVDAMTAQRPDGVAVKDLNGKARTYAETQARVYALASSLQQAGITSGARVAVYCEPTVDTVALVLAIYRVGAAYIPLDVRNSHERLADVVRECKPTLILYHGATKHTLVDVAGDGQDALDIDTVPQSAAPIPDVSKLSDPAVILYTSGSTGKPKGIMLTHANLSLQFASISSALDLTDRDVVLQQSALGFDASLSQMFMALTNGGTLIHGSNRGDPVDLAALIEREGVTLTLIMISEMSALLQYGSDILSRCQSWRIALCGGEAFTVNLLRKFRDLNLPNLELYNAYGPTEASIMSSLGKVAYRRTDWGDGSVVPVGPPLPNYGVYVLDENFQPCPLGWPGELCICGPGVAEGYVGLPELTSSKFQPDQLRKPQGPSYDGWVRVYRTGDKARLLQDGSFVFLGRMDGDSQVKLRGIRIELNDISNSIVKTSKEAIVDAATIVKGTTSQTLVSFVVFAPAKVVDLERSNSSASAYLRQVIQSLPLPVYMRPAIAVPLERLPFTERGKLDTKALAAIPIQEDEETVNEELSETEQKLKQVWQDILSEQGMSLEIRRQSDFFSVGGNSLMLMRVRAKMLEVFGVSVPLAELFQASTLETLASRLDGNKTAESDNIVWNEETALDVSLPPAIAHPRDHPEKDLSVILTGSTGFLGRAIVRQLIADPRISTIHCLAVRPGRTLPEELVGSSKVIVYTGDLAAKRLGLSAPQAQEIFSSAAAIIHNGAEVSHMKSYHSLRPTNVDSTRQLVELALRSSIDSAVRTPAFHYVSTAGVGHLLGIPAFPEQSVSSSPPPVDGSDGYVAAKWASERILEQASERLGLPVFIHRPSNITGPDVGDRDIIHNVWRWSEVLRAVPDLVAAGAKGAFDFVGVETCAKGITDTLFVQASAGHLAYIHQSGENVIPVEEFGECLQRNGGADVELVPFDQWVDKAVQAGLDDLVASFLRGTKGAFQMPFLPKGLRQ
- Km: 310.0 ± 15.5 µM
- kcat: 0.287 ± 0.04 s⁻¹
